Laboratory results reported in the supplement of paper PMC9732359.
± gives the uncertainty stated by the source.

Test: protein stability index of a GFP-peptide fusion (yeast GPS) (PSI 1-4); higher = more stable; sorted into four equal gates, so the index is relative within each strain
Summary of the method: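 Tiled 17-residue peptides from yeast proteins were fused downstream of GFP on a plasmid that also expresses Cherry, and the pooled library was carried in yeast. Mid-log cultures grown in leucine-free medium were sorted into four equal gates by GFP/Cherry fluorescence ratio. Plasmids from each gate were PCR-amplified and Illumina-sequenced, and reads were assigned to strains by barcodes. Each peptide's protein stability index is the sum, over gates, of the gate's read frequency multiplied by its gate number.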

Sequence | protein stability index (doa10∆) | protein stability index (pdr5∆) | protein stability index (san1∆) | protein stability index (ubr1∆)
SSFKEDCLSFAPTLSQT [SSN2] | 2.7 ± 0.084 | 2.67 ± 0.1 | 3.03 ± 0.086 | 2.91 ± 0.052
KAKVDDLVLGKPLADLR [YLR335W/NUP2] | 3.23 ± 0.25 | 3.56 ± 0.21 | 3.39 ± 0.072 | 3.35 ± 0.09
NSESDSKSDSDSEERDP [ITC1] | 3.14 ± 0.14 | 2.99 ± 0.2 | 3.01 ± 0.12 | 3.22 ± 0.12
EWRKSAIANTLLYLRLK [PRP8] | 1.85 ± 0.063 | 1.54 ± 0.051 | 1.41 ± 0.095 | 1.37 ± 0.047
MLMSKIGDVDGLIVNPV [POP5] | 2.57 ± 0.051 | 2.58 ± 0.056 | 2.47 ± 0.041 | 2.42 ± 0.04
KSQNTALPSTHKVTQKK [SIR4] | 2.6 ± 0.061 | 2.9 ± 0.061 | 2.79 ± 0.071 | 3.01 ± 0.05
SPDGRNFQVEYAVKAVE [PRE10] | 2.8 ± 0.079 | 2.81 ± 0.077 | 2.65 ± 0.07 | 2.37 ± 0.085
HNMKAYYKKFLIEPLPT [BRR2] | 1.26 ± 0.055 | 1.58 ± 0.07 | 1.18 ± 0.16 | 1.44 ± 0.084
FIKVVNYNHLLPTRYTL [RPL27A] | 2.34 ± 0.06 | 2.25 ± 0.076 | 2.07 ± 0.098 | 2.18 ± 0.067
QKQWDDIAFVLNNLPYK [YCS4] | 2.48 ± 0.077 | 3.09 ± 0.082 | 2.97 ± 0.11 | 3.18 ± 0.086
RQNRRPELGDKFSSRHG [RET1] |  | 3.4 ± 0.3 |  | 2.63 ± 0.21
ISHIEKRIESLQKDLQR [SMC1] | 1.86 ± 0.065 | 2.48 ± 0.077 | 1.75 ± 0.09 | 1.85 ± 0.066
QKLFVQVSNFAPQVYII [GAL11] | 2.62 ± 0.077 | 2.45 ± 0.061 | 2.86 ± 0.065 | 2.32 ± 0.049
EINLSKIFQTTPEKDLF [YCS4] | 2.72 ± 0.11 | 2.29 ± 0.075 | 1.5 ± 0.091 | 2.7 ± 0.055
VWDKFAVNLLNCPHSDS [SSN2] |  | 2.81 ± 0.27 |  | 
IPISSETTIDDLPISST [SMC1] | 2.68 ± 0.047 | 2.72 ± 0.061 | 2.68 ± 0.047 | 2.99 ± 0.041
MFLTRSEYDRGVSTFSP [PUP2] | 3.58 ± 0.21 |  |  | 3.34 ± 0.11
KSLGVKSLGGGAALKDI [FAS2] | 3 ± 0.051 | 2.25 ± 0.049 | 2.41 ± 0.048 | 2.86 ± 0.057
SAIDEEIEELIDSINGP [SMC3] | 3.29 ± 0.14 | 3.24 ± 0.17 | 3.08 ± 0.17 | 2.42 ± 0.24
WMMNGALQILNSGIIPG [FAS2] | 1.7 ± 0.092 | 1.86 ± 0.092 | 2.52 ± 0.15 | 1.46 ± 0.24
YMKFSNKYLELCKLASN [RRI2] | 1.64 ± 0.05 | 1.87 ± 0.039 | 1.57 ± 0.092 | 1.76 ± 0.037
PLSLTHRDKNKMDMICR [DIS3] | 3.24 ± 0.13 | 3.43 ± 0.16 | 3.23 ± 0.13 | 3.16 ± 0.18
QREEAKKVVKKAFEERH [RPL27A] |  | 3.78 ± 0.2 | 2.63 ± 0.29 | 
GDLVYARVCTAEKELEA [RRP40] | 1.3 ± 0.09 | 1.51 ± 0.19 | 1.46 ± 0.19 | 1.2 ± 0.23
LVSSYLNKSDLLDKYGK [YML103C/NUP188] | 2.87 ± 0.091 | 3.13 ± 0.058 | 3.17 ± 0.053 | 2.89 ± 0.065
GGALDNPFEDDMDGVDF [BRN1] | 3.39 ± 0.054 | 3.32 ± 0.077 | 3.4 ± 0.039 | 3.41 ± 0.057
AKFFLNVSDEQLSNWQK [ITC1] | 3.21 ± 0.073 | 3.21 ± 0.053 | 3.18 ± 0.063 | 3.17 ± 0.072

Sequence | protein stability index (doa10∆) | protein stability index (pdr5∆) | protein stability index (san1∆) | protein stability index (ubr1∆)
KRAFENFKKFNERRKDL [SMC3] | 3.45 ± 0.078 | 3.26 ± 0.068 | 3.51 ± 0.068 | 3.15 ± 0.075
ENDQQDNEEWMNDVINT [LIN1] | 3.36 ± 0.076 | 3.24 ± 0.073 | 3.19 ± 0.058 | 2.98 ± 0.071
FMTKLLEVANDLQLLYV [IRR1] | 1.72 ± 0.11 | 1.98 ± 0.075 | 2.23 ± 0.12 | 1.24 ± 0.045
IKKPTSAVVSSNASRRK [RPN4] | 2.47 ± 0.17 | 2.3 ± 0.17 | 2.36 ± 0.076 | 2.89 ± 0.27
EDVVAISSRTYGQRAVL [RPS0B] | 3.28 ± 0.12 | 3.03 ± 0.06 | 3.01 ± 0.087 | 3.1 ± 0.049
RVGVKLKFNSTEYRGTL [SMX3] | 3.18 ± 0.11 | 3.17 ± 0.07 | 2.87 ± 0.09 | 3.02 ± 0.094
VNDVEELGEIIDEDIGN [RMP1] | 3.41 ± 0.15 |  | 2.98 ± 0.2 | 3.19 ± 0.28
FANNHFLNSNAVVVGTG [COR1] | 1.41 ± 0.064 | 1.91 ± 0.061 | 2.33 ± 0.064 | 2.04 ± 0.056
SEYNFLEGSVSLPRFSK [DIS3] | 3.1 ± 0.078 | 3.18 ± 0.068 | 3.11 ± 0.05 | 3.2 ± 0.05
ELNVDSMDVDDKNSGVK [ITC1] | 1.97 ± 0.1 | 1.27 ± 0.042 | 1.68 ± 0.1 | 1.43 ± 0.06
NQVMMDRKIQGWLGALT [ARP7] | 2.84 ± 0.069 | 3.18 ± 0.052 | 3 ± 0.054 | 2.98 ± 0.044
NFKSYRGVTKVGFGESN [SMC1] | 3.03 ± 0.096 | 2.89 ± 0.13 | 2.53 ± 0.15 | 2.72 ± 0.11
IVFDNTDKSNSPIGFTN [SMC2] | 3.1 ± 0.049 | 3.15 ± 0.063 | 3.15 ± 0.052 | 2.96 ± 0.068
LVQLKKFSDLKFILQIL [YML103C/NUP188] | 2.15 ± 0.08 | 1.91 ± 0.075 | 2.34 ± 0.11 | 1.44 ± 0.059
DDYSNEDNEMLEDLFSY [YJR042W/NUP85] | 2.01 ± 0.15 | 1.94 ± 0.15 | 1.76 ± 0.18 | 1.66 ± 0.073
TIWCVCDSYLDADKELS [BRR2] | 2.39 ± 0.059 | 2.44 ± 0.07 | 2.92 ± 0.057 | 2.75 ± 0.072
KTGITKKDEDEEADEDM [PRE9] | 3.37 ± 0.13 | 3.7 ± 0.26 | 3.5 ± 0.11 | 2.95 ± 0.23
EQPCVDIISGKIHSILP [YJR042W/NUP85] | 3.02 ± 0.067 | 3.07 ± 0.1 | 3 ± 0.064 | 3 ± 0.053
RPFDSFGKLLQAYQFLN [ITC1] | 1.44 ± 0.047 | 1.58 ± 0.058 | 1.48 ± 0.077 | 1.64 ± 0.053
NNTNNNNTNTGASGVDD [SWI1] | 2.75 ± 0.073 | 2.95 ± 0.065 | 3.05 ± 0.072 | 3.3 ± 0.048
DKFFNEVNKSELYLTAE [SIR3] | 3.43 ± 0.13 | 3.55 ± 0.13 | 3.23 ± 0.085 | 3.58 ± 0.12
PPPPGFEEDSDLALPPP [PRP8] | 3.22 ± 0.078 | 3.36 ± 0.07 | 3.19 ± 0.079 | 3.35 ± 0.057
SYINVTFRAVVFKPFLG [RPC25] | 1.52 ± 0.084 | 1.95 ± 0.061 | 2.26 ± 0.079 | 1.94 ± 0.056
STVIEEFTLFMDIAERI [YGL172W/NUP49] | 2.37 ± 0.053 | 2.71 ± 0.053 | 2.47 ± 0.049 | 2.75 ± 0.038
NGGVGVDVELITSINVE [FAS2] | 2.93 ± 0.051 | 3.18 ± 0.056 | 3.11 ± 0.05 | 3.13 ± 0.05
SLQDLIYKRGQAGVTKA [SMC2] | 1.58 ± 0.15 | 1.94 ± 0.094 | 1.85 ± 0.15 | 2.3 ± 0.079
